# Laboratory results taken from the supplement of paper PMC10724198.
# ± gives the standard deviation of the averaged measurements.
# Tested on: Saccharomyces cerevisiae
# Experiment: protein stability index of tFT-peptide fusion (C-terminal peptide) (PSI (0-1 scale)); higher = more stable (slower turnover)
# Settings: genetic background: wild type; temperature: 30 C
# Description: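 Multiplexed protein stability (MPS) profiling in S. cerevisiae. Random 12-aa peptides (tFT-X12 library) are fused to the C-terminus of a sfGFP-mCherry tandem fluorescent timer, after mCherry and a GGGS linker. Cells are FACS-sorted into 8 mCherry/sfGFP bins and deep-sequenced. The protein stability index (PSI) is the read-weighted bin average, scaled from 0 (unstable) to 1 (stable). Only peptides with >10 reads are reported; cells were grown at 30 °C in SC-His with glucose.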
# 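Further: PSI is a weighted mean of sequencing reads over stability bins, variants kept only with over 10 reads, mCherry proximal and sfGFP distal, peptide attached via GGGS linker.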
row,Sequence,protein stability index
1,SSRSMKKKKVKI,0.7034 ± 0.0027
2,PHEKDKNMGKQK,0.702 ± 0.085
3,RGGAGSWDWEAG,0.707 ± 0.028
4,SSPPRSLLSKSF,0.722 ± 0.017
5,PHLHHPPPPISA,0.603 ± 0.027
6,SVFSPSTALLYP,0.697 ± 0.02
7,PDGTGPLCAPEP,0.646 ± 0.059
8,LSTSLPLSPPPP,0.652 ± 0.013
9,EEYFFVNLFFAS,0.752 ± 0.085
10,SSASLIPPPPVP,0.693 ± 0.053
11,TSVSLYWDSNLC,0.751 ± 0.033
12,LFPALFWPTSTL,0.743 ± 0.032
13,FLHLTSSTPLSR,0.794 ± 0.17
14,PSPAPTPPTPHS,0.721 ± 0.28
15,SSSEGNRGSLQY,0.774 ± 0.041
16,LLPPPPPPSTPT,0.798 ± 0.083
17,RSPLPHPPPHSY,0.612 ± 0.054
18,PSGPPPSLFPSA,0.661 ± 0.052
19,IKIKKKKKRNKR,0.685 ± 0.057
20,DQRRKKKPIKGN,0.736 ± 0.12
21,PLTFARLPPPTL,0.678 ± 0.021
22,TERPPRRPKSQG,0.715 ± 0.038
23,LIFLPPSPLPLS,0.709 ± 0.085
24,TPSCPALRGDAE,0.661 ± 0.016
25,WSSLSCACVVPF,0.726 ± 0.065

row,Sequence,protein stability index
1,KQGHNEIMTKGK,0.6814 ± 0.0015
2,LWCGGWVCVLGW,0.532 ± 0.013
3,VVALLGPSGGWW,0.742 ± 0.018
4,LSLPTLPLPPPS,0.7173 ± 0.006
5,GEERRGRCGEKQ,0.597 ± 0.087
6,IRRTNRKETRKE,0.686 ± 0.042
7,HLPSPLPSPSFH,0.6061 ± 0.0017
8,SVTLVPPPLPFP,0.677 ± 0.054
9,RCLRYFVWRLGW,0.709 ± 0.12
10,CGLRGAGCLARD,0.637 ± 0.019
11,VSFAGSPVPSSS,0.716 ± 0.0095
12,RNRLTTMCRHLE,0.655 ± 0.062
13,SVRDRCKENERF,0.658 ± 0.043
14,FPCRSPKLYPPL,0.655 ± 0.011
15,FAALACKSRLEF,0.685 ± 0.03
16,LSPPPPLALTPS,0.709 ± 0.021
17,SAGDLFVFEYLG,0.6759 ± 0.0024
18,SSRVSLSTVCLL,0.585 ± 0.019
19,NNQKTKLNEKNC,0.647 ± 0.048
20,VDSYTGGFDLSW,0.681 ± 0.062
21,IRLQKEGIKKIL,0.699 ± 0.019
22,PPPFSPLPPGPP,0.699 ± 0.0077
23,PPPPLPPIRPYP,0.719 ± 0.016
24,SRETRRRENPAK,0.677 ± 0.19
25,KRKDKKKKYIRK,0.759 ± 0.085

row,Sequence,protein stability index
1,VPPPPPRLKRFA,0.639 ± 0.035
2,SVSEIGYEIRSL,0.739 ± 0.068
3,CYMFFNPSFNRR,0.712 ± 0.017
4,CSRFPYSHSLSQ,0.716 ± 0.016
5,AGAIWGGDSGVG,0.607 ± 0.047
6,GPTPHQPRMDPR,0.693 ± 0.011
7,PPRSPPPPRLLL,0.724 ± 0.048
8,FFGGAGVTEGLG,0.683 ± 0.043
9,QVGTHVTLCEDP,0.679 ± 0.0098
10,LILLTVGSPRSG,0.686 ± 0.013
11,GVRRVVKGTKGC,0.662 ± 0.013
12,NRYKIKKKIERR,0.6 ± 0.039
13,LFYYLFRYFFPP,0.548 ± 0.0094
14,SNPLRPHLPPHF,0.714 ± 0.054
15,PPLPPPSSPLFP,0.714 ± 0.087
16,GLGSSVLQVGVR,0.689 ± 0.056
17,PHVGSGDGVMKA,0.598 ± 0.038
18,SQGSTLRGIEEP,0.661 ± 0.048
19,SSLSFAPAPPFV,0.698 ± 0.035
20,LPSCKVSLASLL,0.6281 ± 0.0035
21,LCAGASYTMTVP,0.694 ± 0.021
22,YATAICRSGCLK,0.699 ± 0.037
23,TTQPQVGHHRTS,0.715 ± 0.021
24,CRRCQRNRVLDG,0.673 ± 0.068
25,GAIRLSLMLLPQ,0.686 ± 0.042

row,Sequence,protein stability index
1,NGGSAKVYLGKI,0.652 ± 0.019
2,LLYPRYFSTGIT,0.558 ± 0.065
3,SGLSFPPLYSLL,0.715 ± 0.092
4,GVLIDVFGRSAV,0.696 ± 0.029
5,DTFLGSLFIFIR,0.522 ± 0.011
6,SFRPPPPSSFPA,0.745 ± 0.019
7,PPPALEPSPKEL,0.781 ± 0.057
8,LCGALWGAARGE,0.728 ± 0.019
9,PSPSPPRLLPPP,0.7 ± 0.031
10,RSGCGYCLVRLG,0.541 ± 0.0007
11,SRGVSRGGGEVF,0.651 ± 0.027
12,FGVDGVGVVVGY,0.669 ± 0.0086
13,SWGGLGSFCRVI,0.684 ± 0.014
14,FSPLLQSPLLAP,0.692 ± 0.0089
15,IFMHPRATLPAR,0.73 ± 0.076
16,VEEDPSSQLVIF,0.599 ± 0.01
17,SVLALKGFCWLG,0.562 ± 0.042
18,ARSLPSPTLPFL,0.697 ± 0.058
19,SDVLSFYGGVEC,0.742 ± 0.026
20,SRSWLPPVFPRV,0.807 ± 0.059
21,PPLTPPPPTPPP,0.635 ± 0.057
22,PPPSPNPRENPK,0.671 ± 0.0071
23,CGVYGRVVEWGG,0.706 ± 0.042
24,SPRPTRCGQNSM,0.6897 ± 0.0053
25,PPHSTPPTGRPG,0.753 ± 0.014

row,Sequence,protein stability index
1,PPRPAPPPPPAL,0.723 ± 0.11
2,PPSVTLSEMTTG,0.642 ± 0.025
3,DIAFFEGSGGTM,0.675 ± 0.096
4,PLPPPTSPPSPP,0.749 ± 0.11
5,PFSASSILESVI,0.719 ± 0.098
6,KKAKEETSTPDC,0.67 ± 0.034
7,LLLASSFFTLIL,0.687 ± 0.043
8,GGFASGLCGGVI,0.728 ± 0.087
9,VFIVARGLSLIV,0.536 ± 0.014
10,DFSSLIISFPFI,0.627 ± 0.059
11,RGVGGREGAAPV,0.691 ± 0.0093
12,VLGPFKKSIQVL,0.522 ± 0.02
13,PLPRPPSPPPAP,0.68 ± 0.12
14,ATVPLVTPLPHF,0.697 ± 0.042
15,RSHLLPPPRHQH,0.7333 ± 0.00099
16,KSGLMFCIGDWC,0.7 ± 0.044
17,RGNAMSFVCVGE,0.658 ± 0.096
18,GSRPPPRPLFPS,0.697 ± 0.048
19,SPPFLPCLFHAS,0.687 ± 0.048
20,GRNDYYTRKISV,0.728 ± 0.17
21,VKEKKKDEKRKR,0.747 ± 0.072
22,VDLGLYGYTDIW,0.685 ± 0.035
23,PPRLPPLPSSLL,0.721 ± 0.033
24,RPNTVHLQALYN,0.6802 ± 0.0046
25,PPLPPPPASPPP,0.589 ± 0.045

row,Sequence,protein stability index
1,SRPRLSDLFPPP,0.706 ± 0.11
2,LWGGAGLRCGGF,0.726 ± 0.017
3,NKKTYHRPTKNY,0.693 ± 0.015
4,PTNISEKVGAKS,0.671 ± 0.02
5,SIIIRVTQSGSG,0.6414 ± 0.0056
6,GSFLGVRPGNVF,0.828 ± 0.055
7,SLREIIRKSLGL,0.677 ± 0.022
8,VVLRRTLGAFLF,0.661 ± 0.059
9,PPPPPLPPPSPP,0.598 ± 0.036
10,RVVEFGFGGCHW,0.758 ± 0.061
11,AWNRFVNPRVWS,0.677 ± 0.03
12,RCGVGGSVSFWW,0.689 ± 0.05
13,PFPSPAAPPPSL,0.674 ± 0.01
14,RVVGGWGEAWRE,0.744 ± 0.0091
15,RYHQNTKKTSDI,0.7119 ± 0.0016
16,QAGARGRRGVRG,0.678 ± 0.016
17,SLGGCVMCGTTL,0.708 ± 0.029
18,VTIFAGIGQFWF,0.706 ± 0.021
19,AVFHPPPILPPP,0.70154 ± 0.00061
20,KEQNKVHTQNKK,0.755 ± 0.29
21,YRYGVSWFDWRI,0.784 ± 0.058
22,KGHGTTCVGRQV,0.677 ± 0.04
23,CFPPSLVPRPTY,0.673 ± 0.054
24,PPTFPPLLSPPP,0.661 ± 0.025
25,PPDLPVPRPSFR,0.571

row,Sequence,protein stability index
1,NRSIFITMDSSL,0.676 ± 0.011
2,WRGEMGGSGGQA,0.713 ± 0.032
3,GYRMEGRVDSGG,0.6495 ± 0.004
4,YAGARGPMNRGS,0.701 ± 0.015
5,TLPSHPRLLSLH,0.6965 ± 0.0013
6,GGGGRGVGAGGG,0.652 ± 0.061
7,SPRPHRHLPFRP,0.709 ± 0.0072
8,SPRPIKCRPLLI,0.62 ± 0.018
9,FPAPFLRVSPLW,0.644 ± 0.048
10,AVSTYGAQAWNH,0.704 ± 0.018
11,WIIRATCAGVSL,0.528 ± 0.032
12,KQRTMNKVSKEK,0.683 ± 0.045
13,YGFLRSWCICDT,0.729 ± 0.098
14,VSGFVILDSTCP,0.671 ± 0.025
15,WTSGCLEIFRRE,0.702 ± 0.033
16,PPPRPPPFPLSC,0.7134 ± 0.0065
17,PLPLPPSPPFQF,0.751 ± 0.011
18,RVFLAVCYGCRV,0.5659 ± 0.0034
19,PLPLPLASSFPS,0.627 ± 0.059
20,SSALSLVSSFLP,0.705 ± 0.05
21,PPPVPPPAPLLS,0.642 ± 0.074
22,GRFSHRCGGGVW,0.622 ± 0.046
23,PTTAVNLPQGGT,0.68 ± 0.063
24,FSSYDLISFVLV,0.538 ± 0.0099
25,LGFLSSLLCRSL,0.779 ± 0.068

row,Sequence,protein stability index
1,VCCSDSLCFVVS,0.601 ± 0.052
2,GNPRRNLSTSSR,0.712 ± 0.02
3,RRHPRLPSLSGL,0.651 ± 0.044
4,HSLRPPPRHQQK,0.689 ± 0.02
5,VDHWVCWCGGWG,0.7734 ± 0.0072
6,AWEPGGVVAVLL,0.621 ± 0.14
7,GSGLEAGVRRWG,0.67 ± 0.016
8,PVSFPFPISSLS,0.701 ± 0.062
9,GSLRRSHYLLRA,0.588 ± 0.086
10,KLQKINKIKNEI,0.685 ± 0.032
11,LRSPFPTPSDLV,0.714 ± 0.051
12,LLCLVSCFGCWL,0.585 ± 0.052
13,SIISRVLDAMAK,0.724 ± 0.21
14,RSNNKFAKPIQY,0.663 ± 0.11
15,SYGDPSTTRLSP,0.701 ± 0.063
16,LAFSGAWGILPL,0.682 ± 0.067
17,GLCLLSKDGCLV,0.669 ± 0.055
18,PEITWFVIGVIE,0.541 ± 0.043
19,FPLPLCHSPAPP,0.606 ± 0.027
20,CGGGGGLWLLEV,0.559 ± 0.015
21,SGLVCDGSSGGV,0.635 ± 0.0083
